{"source": "patent US20180051068A1", "biological_target": "integrin β1 expressed by the β1AGD25 cell line", "test": "cell-based or functional assay"}
{"substance": "CalA-mCherry expressed in S. cerevisiae that co-expresses Candida albicans Als1", "values": [{"measurement": "endocytosis of S. cerevisiae by β1AGD25 cells (differential fluorescence assay)", "result": 3, "unit": "times"}]}
